Experimental data reported in patent US20220356230A1.

Key:
Conditions in all cases: remark: other sources report otherwise
[1] = molecular target: Bt-SARS-CoV-2 Spike Protein (RBD)(R319-F541).hFc (SARS-CoV-2)
[2] = molecular target: Bt-SARS-CoV-2 Spike Protein (RBD)(R319-F541).mFc (SARS-CoV-2)
[3] = molecular target: SARS-CoV-2 RBD extracellular domain expressed with a C-terminal myc-myc-hexahistidine tag (SARS-COV-2 RBD-MMH) (SARS-CoV-2)
[4] = molecular target: SARS-CoV-2 RBD extracellular domain expressed with a C-terminal human IgG1 (SARS-COV-2 RBD-hFc) (SARS-CoV-2)
[5] = molecular target: SARS-CoV-2 spike protein receptor binding domain (amino acids Arg319 to Phe541) expressed with the F (SARS-CoV-2)
[6] = molecular target: Human SARS Coronavirus Spike Protein (Receptor Binding Domain) rabbit Fc (Sino 40150-V31B2) (Human SARS Coronavirus), P59594; assay: Luminex bead assay, antigen on microspheres, antibody supernatant
[7] = molecular target: Human SARS Coronavirus Spike Protein (Receptor Binding Domain, His Tag) (Sino 40150-V08B2) (Human SARS Coronavirus), P59594; assay: as above
[8] = molecular target: Human SARS Coronavirus Spike S1 Subunit Protein (His Tag) (Sino 40150-V08B1) (Human SARS Coronavirus), P59594; assay: as above
[9] = molecular target: MERS-CoV (NCoV/Novel coronavirus) Spike Protein S1 Protein (aa 1-725, His Tag) (Sino 40069-V08B1) (MERS-CoV), K9N5Q8; assay: as above
[10] = molecular target: MERS-CoV (NCoV/Novel coronavirus) Spike Protein fragment (RBD, aa 367-606, His Tag) (Sino 40071-V08B1) (MERS-CoV), K9N5Q8; assay: as above
[11] = molecular target: SARS-CoV-2 Spike Protein (RBD)(R319-F541).hFc (SARS-CoV-2); assay: as above
[12] = molecular target: SARS-CoV-2 Spike Protein (RBD)(R319-F541).mFc (SARS-CoV-2); assay: as above

Binder	Binding signal (MFI) [1] [MFI]	Binding signal (MFI) [2] [MFI]	Kd [3] [nM]	t½ [3] [min]	Kd [4] [nM]	t½ [4] [min]	SARS-CoV-2 RBD-hFc Binding to His presented ACE2 (Abs 450 nm) [5] [Abs 450 nm]	Binding signal (MFI) [6] [MFI]	Binding signal (MFI) [7] [MFI]	Binding signal (MFI) [8] [MFI]	Binding signal (MFI) [9] [MFI]	Binding signal (MFI) [10] [MFI]	Binding signal (MFI) [11] [MFI]	Binding signal (MFI) [12] [MFI]
mAb11004 (antibody, V domains shown) VH: QVQLVESGGGVVQPGRSLRLSCVASGFTFSIYGMDWVRQAPGKGLEWVAVISYDGSNKYYADSVKGRFTISRDNSKNTLYLQMNSLRPEDTAVYYCAKDREAAADAFDIWGQGTMVTVSS VL: DIQMTQSPSSVSASVGDRVTITCRASQGISSWLAWYQQKPGKAPKLLIYAASSLHSGVPSRFSGSGSGTDFTLTISSLQPEDFATYYCQQANSFRLTFGGGTKVEIK	7620	4300	16.6	3.7	0.191	174	0.211	5520	740	33	17	26	4880	4580
mAb10998 (antibody, V domains shown) VH: EVQLVESGGGLVHPGGSLRLSCAASGLTVSSNYMSWVRQAPGKGLEWVSVIYSGGSTYYADSVKGRFTISRHNSKNTLFLQMNSLRAEDTAVYYCARDRPITGTTLDVWGQGTTVTVSS VL: DIQMTQSPSSLFASVGDRVTITCRASQSISSYLNWYQQKPGKAPKLLIYAASSLQSGVPSRFSGSGSGTDFTLTISSLQPEDFAFYYCQQTYSTPPITFGQGTRLEIK	467	2230	117	0.5	1.58	22.2	–	29	37	16	19	24	1740	2230
mAb11006 (antibody, V domains shown) VH: EVQLVESGGGLVQPGGSLRLSCAASGFIVSRNYMSWVRQAPGKGLEWVSVIYSGGSTFYADSVKGRFTISRHNSKNTLYLQMNSLKAEDTAVYYCARELRGYFDYWGQGTLVTVSS VL: DIQLTQSPSFLSASVGDRVTITCWASQGISSYLAWYQQKPGKAPKLLIYAASTLQSGVPSRFSGSGSGTEFTLTISSLQPEDFATYYCQLLNSYPYTFGQGTKLEIK	3810	1400	4.1	31.5	< 0.0532	> 1160	–	615	667	339	18	15	3980	2870
mAb11008 (antibody, V domains shown) VH: EVQLVESGGGLVQPGGSLRLSCAASGFTVSSNYMTWVRQAPGKGLEWVSVIYSGGSTFYADSVKGRFTISRHNSENTLYLQMNSLRAEDTAVYYCARDLAAAGTDYWGQGALVTVSS VL: DIQLTQSPSFLSASVGDRVTITCWASQGISSYLAWYQQKPGKAPKLLIYAASTLQSGVPSRFSGSGSGTEFTLTISSLQPDDFATYYCQHLNSYLYTFGQGTKLEIK	4110	3050	59.4	2.9	0.715	100	–	120	174	31	18	20	2570	4260
